Assay results from article PMC10046596, “Biophysical and Biochemical Characterization of the Binding of the MarR-like Transcriptional Regulator Saro_0803 to the nov1 Promotor and Its Inhibition by Resveratrol” (Biomolecules, 2023).

Columns and labels:
[1] = target: T1, Saro_0803 (Novosphingobium aromaticivorans, UniProt Q2GA75); assay: ITC (also SPR, Kd […]; EMSA shows inhibition of nov1p^[…]bp binding)
T1 construct: His-tagged Saro_0803 (pET-30a(+)), full-length; homogeneous dimer in solution
T1 sequence (Q2GA75 1-157): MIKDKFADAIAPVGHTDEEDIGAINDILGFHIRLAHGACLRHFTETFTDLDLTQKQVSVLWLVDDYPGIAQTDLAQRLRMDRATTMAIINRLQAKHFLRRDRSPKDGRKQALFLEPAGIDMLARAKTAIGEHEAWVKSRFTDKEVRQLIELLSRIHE

[2] = target: T2, Saro_0803 (Novosphingobium aromaticivorans DSM …, UniProt Q2GA75 1-157); assay: EMSA; 10 µM protein; ITC: 50 mM Tris-HCl pH 8.0, 200 mM NaCl, 5% DMSO, 25 °C, 20 µM protein, 200 µM DNA; EMSA: 5.0 µM DNA (annealed in 50 mM Tris-HCl pH 8.0, 200 mM NaCl), 37 °C 30; details: protein: recombinant; tags: His-tag (pET-30a(+), NdeI/XhoI); chain copies: 2
T2 sequence: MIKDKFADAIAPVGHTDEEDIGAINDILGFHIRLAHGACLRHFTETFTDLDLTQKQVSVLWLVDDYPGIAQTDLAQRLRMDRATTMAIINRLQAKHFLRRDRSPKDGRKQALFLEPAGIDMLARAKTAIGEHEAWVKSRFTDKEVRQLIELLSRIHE

[3] = target: T2, Saro_0803; assay: ITC; 5% DMSO; ITC: 50 mM Tris-HCl pH 8.0, 200 mM NaCl, 5% DMSO, 25 °C, 20 µM protein, 200 µM DNA; EMSA: 5.0 µM DNA (annealed in 50 mM Tris-HCl pH 8.0, 200 mM NaCl), 37 °C 30; details: protein: recombinant; tags: His-tag (pET-30a(+), NdeI/XhoI); chain copies: 2
[4] = target: T3, Saro_0803 A87R (Novosphingobium aromaticivorans DSM …, UniProt Q2GA75 1-157, A87R); assay: as above; details: protein: recombinant; tags: His-tag; chain copies: 2
T3 sequence: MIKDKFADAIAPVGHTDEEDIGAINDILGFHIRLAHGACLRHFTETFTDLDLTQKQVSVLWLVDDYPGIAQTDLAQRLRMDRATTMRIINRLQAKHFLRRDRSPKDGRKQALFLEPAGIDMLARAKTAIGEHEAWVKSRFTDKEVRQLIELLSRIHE

[5] = target: T4, Saro_0803 R108A (Novosphingobium aromaticivorans DSM …, UniProt Q2GA75 1-157, R108A); assay: as above; details: protein: recombinant; tags: His-tag; chain copies: 2
T4 sequence: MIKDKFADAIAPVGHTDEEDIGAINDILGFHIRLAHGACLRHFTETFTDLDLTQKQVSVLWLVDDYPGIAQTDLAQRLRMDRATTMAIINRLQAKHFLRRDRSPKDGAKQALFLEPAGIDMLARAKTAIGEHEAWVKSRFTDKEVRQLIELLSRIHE

[6] = target: T5, Saro_0803 K109A (Novosphingobium aromaticivorans DSM …, UniProt Q2GA75 1-157, K109A); assay: as above; details: protein: recombinant; tags: His-tag; chain copies: 2
T5 sequence: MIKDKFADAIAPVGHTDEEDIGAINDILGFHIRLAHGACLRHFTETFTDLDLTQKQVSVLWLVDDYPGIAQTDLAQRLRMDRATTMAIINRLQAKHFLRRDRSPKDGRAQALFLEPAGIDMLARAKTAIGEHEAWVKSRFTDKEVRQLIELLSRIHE

[7] = target: T6, Saro_0803 K109E (Novosphingobium aromaticivorans DSM …, UniProt Q2GA75 1-157, K109E); assay: as above; details: protein: recombinant; tags: His-tag; chain copies: 2
T6 sequence: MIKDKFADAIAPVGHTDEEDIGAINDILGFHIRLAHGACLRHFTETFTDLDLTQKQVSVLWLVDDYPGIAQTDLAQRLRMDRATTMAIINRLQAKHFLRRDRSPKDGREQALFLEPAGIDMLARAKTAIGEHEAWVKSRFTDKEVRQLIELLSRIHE

[8] = target: T7, Saro_0803 R108D (Novosphingobium aromaticivorans DSM …, UniProt Q2GA75 1-157, R108D); assay: as above; details: protein: recombinant; tags: His-tag; chain copies: 2
T7 sequence: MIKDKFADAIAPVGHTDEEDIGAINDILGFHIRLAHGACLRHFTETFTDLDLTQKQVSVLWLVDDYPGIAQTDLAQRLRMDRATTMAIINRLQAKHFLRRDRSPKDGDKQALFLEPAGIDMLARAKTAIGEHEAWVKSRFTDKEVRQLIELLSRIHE

[9] = target: T8, Saro_0803 K55A (Novosphingobium aromaticivorans DSM …, UniProt Q2GA75 1-157, K55A); assay: as above; details: protein: recombinant; tags: His-tag; chain copies: 2
T8 sequence: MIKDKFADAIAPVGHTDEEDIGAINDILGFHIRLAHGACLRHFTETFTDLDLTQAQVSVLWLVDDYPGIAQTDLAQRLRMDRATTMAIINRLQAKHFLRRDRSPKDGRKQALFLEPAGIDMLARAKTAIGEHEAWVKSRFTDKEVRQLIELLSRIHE

[10] = target: T9, Saro_0803 F47A (Novosphingobium aromaticivorans DSM …, UniProt Q2GA75 1-157, F47A); assay: ITC, EMSA; micromolar or submicromolar; ITC: 50 mM Tris-HCl pH 8.0, 200 mM NaCl, 5% DMSO, 25 °C, 20 µM protein, 200 µM DNA; EMSA: 5.0 µM DNA (annealed in 50 mM Tris-HCl pH 8.0, 200 mM NaCl), 37 °C 30; details: protein: recombinant; tags: His-tag; chain copies: 2
T9 sequence: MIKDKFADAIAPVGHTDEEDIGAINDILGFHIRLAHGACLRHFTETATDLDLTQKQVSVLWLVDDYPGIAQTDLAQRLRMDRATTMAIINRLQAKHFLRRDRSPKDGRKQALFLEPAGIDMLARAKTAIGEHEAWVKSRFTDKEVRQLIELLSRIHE

[11] = target: T10, Saro_0803 W61A (Novosphingobium aromaticivorans DSM …, UniProt Q2GA75 1-157, W61A); assay: as above; details: protein: recombinant; tags: His-tag; chain copies: 2
T10 sequence: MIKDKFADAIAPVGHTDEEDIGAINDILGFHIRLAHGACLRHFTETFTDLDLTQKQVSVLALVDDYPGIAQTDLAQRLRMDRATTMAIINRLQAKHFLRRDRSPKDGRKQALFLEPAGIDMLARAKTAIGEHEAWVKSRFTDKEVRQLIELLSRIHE

[12] = target: T11, Saro_0803 F30A (Novosphingobium aromaticivorans DSM …, UniProt Q2GA75 1-157, F30A); assay: as above; details: protein: recombinant; tags: His-tag; chain copies: 2
T11 sequence: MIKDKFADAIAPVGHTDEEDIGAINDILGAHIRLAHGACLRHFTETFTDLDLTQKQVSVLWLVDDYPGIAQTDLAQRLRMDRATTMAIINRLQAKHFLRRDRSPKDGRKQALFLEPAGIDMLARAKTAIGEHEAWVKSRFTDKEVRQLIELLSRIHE

[13] = target: T12, Saro_0803 F43A (Novosphingobium aromaticivorans DSM …, UniProt Q2GA75 1-157, F43A); assay: as above; details: protein: recombinant; tags: His-tag; chain copies: 2
T12 sequence: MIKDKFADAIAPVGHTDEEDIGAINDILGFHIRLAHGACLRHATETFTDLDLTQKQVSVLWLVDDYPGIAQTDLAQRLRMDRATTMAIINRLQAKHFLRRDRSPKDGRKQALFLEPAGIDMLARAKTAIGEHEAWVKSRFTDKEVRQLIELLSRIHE

[14] = target: the molecule itself; assay: AUC; sedimentation velocity, protein ~1.0 mg/mL, 40,000 rpm for 2 h at 4 °C, c(s) analysis with Sedfit
[15] = target: T2, Saro_0803; assay: EMSA; ITC: 50 mM Tris-HCl pH 8.0, 200 mM NaCl, 5% DMSO, 25 °C, 20 µM protein, 200 µM DNA; EMSA: 5.0 µM DNA (annealed in 50 mM Tris-HCl pH 8.0, 200 mM NaCl), 37 °C 30; details: protein: recombinant; tags: His-tag (pET-30a(+), NdeI/XhoI); chain copies: 2

`Oc1ccc(/C=C/c2cc(O)cc(O)c2)cc1` [resveratrol] was tested, and the Kd [1] was ~35.7 µM.

B1: nov1p58bp with 15 bp 3' deletion (43 bp) (dsDNA)
DNA 1: CCAACGAATGCGCTTGTCTAATTGTTAGCAATACATACAATAT
DNA 2: ATATTGTATGTATTGCTAACAATTAGACAAGCGCATTCGTTGG
B1: no binding [2].

B2: nov1p22bp (dsDNA)
DNA 1: TAATTGTTAGCAATACATACAA
DNA 2: TTGTATGTATTGCTAACAATTA
With B2 the Kd [3] was ~3.57 µM, the Kd [4] was ~1.16 µM and the binding result [5] was “no binding”. B2: no binding [6]; no binding [7]; no binding [8]. The binding signal [9] was ~3 fold decrease in affinity vs WT, the binding result [10] was “binds” and the binding result [11] was “binds”. B2: binds [12]; binds [13].

B3: Saro_0803, MarR-like transcriptional regulator of Novosphingobium aromaticivorans DSM 12444 (natural protein, UniProt Q2GA75 1-157, looked up)
chain: MIKDKFADAIAPVGHTDEEDIGAINDILGFHIRLAHGACLRHFTETFTDLDLTQKQVSVLWLVDDYPGIAQTDLAQRLRMDRATTMAIINRLQAKHFLRRDRSPKDGRKQALFLEPAGIDMLARAKTAIGEHEAWVKSRFTDKEVRQLIELLSRIHE
notes: Transcriptional regulator Saro_0803 (MarR family), encoded by gene saro_0803 of Novosphingobium aromaticivorans DSM 12444; theoretical MW of the tagged protein around 18.75 kDa; called full-length in contrast to the truncation 21-157; Cloned into pET-30a(+) by Nde I/Xho I; No removal of the tag is described; also called polyhistidine-tagged Saro_0803; His-tagged Saro_0803; source: E. coli …
With B3 the “stoichiometry N” value [14] was 2.

B4: 18-bp upstream fragment (dsDNA)
DNA 1: CCAACGAATGCGCTTGTC
DNA 2: GACAAGCGCATTCGTTGG
B4: no binding [15].

B5: downstream neighboring fragment (dsDNA)
DNA 1: TATTGCAAGGAGGATGCC
DNA 2: GGCATCCTCCTTGCAATA
B5: no binding [15].
